Substitutions are numbered along the chain they refer to. Numbers in names are those of the source.
T1: EsCas13d, nuclease-dead (Eubacterium siraeum, UniProt B0MS50, R295A;H300A;R849A;H854A)
T1 sequence: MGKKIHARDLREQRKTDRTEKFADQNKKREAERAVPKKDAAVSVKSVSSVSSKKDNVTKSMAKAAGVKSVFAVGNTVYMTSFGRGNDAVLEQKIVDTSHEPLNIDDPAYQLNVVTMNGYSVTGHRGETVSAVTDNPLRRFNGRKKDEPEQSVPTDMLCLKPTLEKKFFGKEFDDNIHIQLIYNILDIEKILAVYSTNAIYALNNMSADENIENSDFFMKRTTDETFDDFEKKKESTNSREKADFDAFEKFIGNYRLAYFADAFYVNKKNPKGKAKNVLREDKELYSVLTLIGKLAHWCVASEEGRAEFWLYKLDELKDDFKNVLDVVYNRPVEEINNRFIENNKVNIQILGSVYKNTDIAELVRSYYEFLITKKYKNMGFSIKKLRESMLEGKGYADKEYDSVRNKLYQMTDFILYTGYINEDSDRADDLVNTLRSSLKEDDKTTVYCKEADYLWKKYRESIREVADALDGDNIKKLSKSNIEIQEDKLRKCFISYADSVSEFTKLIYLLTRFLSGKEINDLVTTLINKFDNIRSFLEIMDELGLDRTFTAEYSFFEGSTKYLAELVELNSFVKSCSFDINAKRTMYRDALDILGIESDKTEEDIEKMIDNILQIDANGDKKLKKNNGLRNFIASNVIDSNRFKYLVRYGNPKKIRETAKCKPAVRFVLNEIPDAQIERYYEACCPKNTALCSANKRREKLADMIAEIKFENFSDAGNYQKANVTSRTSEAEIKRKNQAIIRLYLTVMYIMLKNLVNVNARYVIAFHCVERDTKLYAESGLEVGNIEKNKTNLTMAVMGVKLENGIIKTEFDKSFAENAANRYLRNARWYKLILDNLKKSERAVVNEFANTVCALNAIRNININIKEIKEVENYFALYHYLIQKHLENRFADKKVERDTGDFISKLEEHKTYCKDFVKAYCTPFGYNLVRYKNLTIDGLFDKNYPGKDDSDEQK

B1: target 1 MT 5'PFS GCC 3'PFS AAU (mixed)
RNA 1: CACCCGUGCAAAAAUGCAGGGGUCUAAAACUGAGCGGAUAACCUCUCUAUGG
RNA 2: GGGAAUGGAUCCACAUCUACGAAUUCGCCCCAUAGAGAGGUUAUCCGCUCAAAUAGAUCGGAAGAGCACACGU
B2: target 1 MT 5'PFS GGU 3'PFS UCA (mixed)
RNA 1: B1 RNA 1
RNA 2: B1 RNA 2 with C28G, C29U, A52U, A53C, U54A
B3: target 1 MT 5'PFS UGC 3'PFS UUG (mixed)
RNA 1: B1 RNA 1
RNA 2: B1 RNA 2 with G27U, C28G, A52U, A53U, U54G
B4: target 1 U11C,A18C (mixed)
RNA 1: B1 RNA 1
RNA 2: B1 RNA 2 with C28U, C29A, A34C, U41C, A52C, A53C, U54G
B5: target 1 MT 5'PFS GCU 3'PFS ACG (mixed)
RNA 1: B1 RNA 1
RNA 2: B1 RNA 2 with C29U, A53C, U54G
B6: target 1 MT 5'PFS GUC 3'PFS CGC (mixed)
RNA 1: B1 RNA 1
RNA 2: B1 RNA 2 with C28U, A52C, A53G, U54C
B7: target 1 MT 5'PFS ACU 3'PFS ACA (mixed)
RNA 1: B1 RNA 1
RNA 2: B1 RNA 2 with G27A, C29U, A53C, U54A
B8: target 1 MT 5'PFS UGC 3'PFS UUC (mixed)
RNA 1: B1 RNA 1
RNA 2: B1 RNA 2 with G27U, C28G, A52U, A53U, U54C
B9: target 1 MT 5'PFS AAU 3'PFS AUC (mixed)
RNA 1: B1 RNA 1
RNA 2: B1 RNA 2 with G27A, C28A, C29U, A53U, U54C
B10: target 1 MT 5'PFS GCU 3'PFS ACU (mixed)
RNA 1: B1 RNA 1
RNA 2: B1 RNA 2 with C29U, A53C
B11: target 1 MT 5'PFS CCG 3'PFS CUC (mixed)
RNA 1: B1 RNA 1
RNA 2: B1 RNA 2 with G27C, C29G, A52C, A53U, U54C
B12: target 1 MT 5'PFS UCA 3'PFS UAU (mixed)
RNA 1: B1 RNA 1
RNA 2: B1 RNA 2 with G27U, C29A, A52U
B13: target 1 MT 5'PFS GGU 3'PFS UCC (mixed)
RNA 1: B1 RNA 1
RNA 2: B1 RNA 2 with C28G, C29U, A52U, A53C, U54C
B14: target 1 MT 5'PFS GCG 3'PFS ACG (mixed)
RNA 1: B1 RNA 1
RNA 2: B1 RNA 2 with C29G, A53C, U54G
B15: target 1 MT 5'PFS AAG 3'PFS AUG (mixed)
RNA 1: B1 RNA 1
RNA 2: B1 RNA 2 with G27A, C28A, C29G, A53U, U54G
B16: target 1 MT 5'PFS GCC 3'PFS CCA (mixed)
RNA 1: B1 RNA 1
RNA 2: B1 RNA 2 with A52C, A53C, U54A
B17: target 1 MT 5'PFS GAG 3'PFS UUC (mixed)
RNA 1: B1 RNA 1
RNA 2: B1 RNA 2 with C28A, C29G, A52U, A53U, U54C
B18: target 1 MT 5'PFS GCC 3'PFS CCG (mixed)
RNA 1: B1 RNA 1
RNA 2: B1 RNA 2 with A52C, A53C, U54G
B19: target 1 MT 5'PFS UCA 3'PFS UAA (mixed)
RNA 1: B1 RNA 1
RNA 2: B1 RNA 2 with G27U, C29A, A52U, U54A
B20: target 1 MT 5'PFS AAG 3'PFS AUA (mixed)
RNA 1: B1 RNA 1
RNA 2: B1 RNA 2 with G27A, C28A, C29G, A53U, U54A
B21: target 1 MT 5'PFS GCG 3'PFS ACA (mixed)
RNA 1: B1 RNA 1
RNA 2: B1 RNA 2 with C29G, A53C, U54A
B22: target 1 MT 5'PFS GUC 3'PFS CGU (mixed)
RNA 1: B1 RNA 1
RNA 2: B1 RNA 2 with C28U, A52C, A53G
B23: target 1 MT 5'PFS GCU 3'PFS ACC (mixed)
RNA 1: B1 RNA 1
RNA 2: B1 RNA 2 with C29U, A53C, U54C
B24: target 1 MT 5'PFS GCA 3'PFS CUA (mixed)
RNA 1: B1 RNA 1
RNA 2: B1 RNA 2 with C29A, A52C, A53U, U54A
B25: target 1 MT 5'PFS GUC 3'PFS CGA (mixed)
RNA 1: B1 RNA 1
RNA 2: B1 RNA 2 with C28U, A52C, A53G, U54A
B26: target 1 U11G,G12U (mixed)
RNA 1: B1 RNA 1
RNA 2: B1 RNA 2 with C28U, C29A, G40U, U41G, A52C, A53C, U54G
B27: target 1 MT 5'PFS GCU 3'PFS GAA (mixed)
RNA 1: B1 RNA 1
RNA 2: B1 RNA 2 with C29U, A52G, U54A
B28: target 1 MT 5'PFS UGC 3'PFS CAC (mixed)
RNA 1: B1 RNA 1
RNA 2: B1 RNA 2 with G27U, C28G, A52C, U54C
B29: target 1 MT 5'PFS CCG 3'PFS CUA (mixed)
RNA 1: B1 RNA 1
RNA 2: B1 RNA 2 with G27C, C29G, A52C, A53U, U54A
B30: target 1 MT 5'PFS ACG 3'PFS AAG (mixed)
RNA 1: B1 RNA 1
RNA 2: B1 RNA 2 with G27A, C29G, U54G
B31: target 1 MT 5'PFS AAG 3'PFS AUC (mixed)
RNA 1: B1 RNA 1
RNA 2: B1 RNA 2 with G27A, C28A, C29G, A53U, U54C
B32: target 1 MT 5'PFS GCG 3'PFS ACU (mixed)
RNA 1: B1 RNA 1
RNA 2: B1 RNA 2 with C29G, A53C
B33: target 1 MT 5'PFS GCA 3'PFS CUU (mixed)
RNA 1: B1 RNA 1
RNA 2: B1 RNA 2 with C29A, A52C, A53U
B34: target 1 MT 5'PFS GAG 3'PFS UUA (mixed)
RNA 1: B1 RNA 1
RNA 2: B1 RNA 2 with C28A, C29G, A52U, A53U, U54A
B35: target 1 C2A,A18C (mixed)
RNA 1: B1 RNA 1
RNA 2: B1 RNA 2 with C28U, C29A, A34C, C50A, A52C, A53C, U54G
B36: target 1 MT 5'PFS UCA 3'PFS UAG (mixed)
RNA 1: B1 RNA 1
RNA 2: B1 RNA 2 with G27U, C29A, A52U, U54G
B37: target 1 MT 5'PFS GUC 3'PFS CGG (mixed)
RNA 1: B1 RNA 1
RNA 2: B1 RNA 2 with C28U, A52C, A53G, U54G
B38: target 1 MT 5'PFS UGC 3'PFS CAA (mixed)
RNA 1: B1 RNA 1
RNA 2: B1 RNA 2 with G27U, C28G, A52C, U54A
B39: target 1 MT 5'PFS CCG 3'PFS CUG (mixed)
RNA 1: B1 RNA 1
RNA 2: B1 RNA 2 with G27C, C29G, A52C, A53U, U54G
B40: target 1 insG 3' of 22,insC 3' of 14 (mixed)
RNA 1: B1 RNA 1
RNA 2: GGGAAUGGAUCCACAUCUACGAAUUCGUACGCAUAGAGACGGUUAUCCGCUCACCGAGAUCGGAAGAGCACACGU

target: T1, EsCas13d, nuclease-dead; assay: crRNA (strand 1, pre-loaded); Mg2+; 40 mM Tris-HCl pH 7.5, 150 mM NaCl, 6 mM MgCl2, 1 mM DTT, 0.1% Tween-20, 0.2 mg/ml BSA; 25 C; 10 min per concentration, then washed; conditions: tags: His6-TwinStrep-SUMO cleaved; N-terminal SNAP kept (SNAP-Surface 488); label: 3' end held by stalled T7 RNA polymerase

B1 and B2 are within error of each other in Kd: ~0.027 µM for the first, 0.044 ± 0.019 µM for the second.

Going from B3 to B4, the Kd rises from 0.0107 ± 0.00205 µM to 0.075 ± 0.01 µM (7-fold).

First: B5
Second: B6
The Kd of the first is 2-fold higher: 0.0435 ± 0.0105 µM for the first, 0.022 ± 0.0045 µM for the second.

Compared with B7, B8 is 6.4-fold lower in Kd: ~0.09 µM for the first, 0.014 ± 0.0037 µM for the second.

B9 and B10 are within error of each other in Kd: 0.0285 ± 0.012 µM for the first, 0.033 ± 0.011 µM for the second.

Going from B11 to B12, the Kd rises from 0.00315 ± 0.001 µM to 0.0115 ± 0.0023 µM (3.7-fold). The first binds more tightly here.

Going from B13 to B14, the Kd rises from 0.021 ± 0.0055 µM to 0.0495 ± 0.01 µM (2.4-fold).

Compared with B15, B16 is 2.9-fold higher in Kd: 0.033 ± 0.0085 µM for the first, 0.095 ± 0.04 µM for the second. The first binds more tightly here.

Compared with B17, B18 is 2.9-fold lower in Kd: 0.037 ± 0.011 µM for the first, 0.0129 ± 0.00315 µM for the second. The second binds more tightly here.

First: B19
Second: B20
The Kd of the first is 2.8-fold lower: 0.00945 ± 0.0033 µM for the first, 0.0266 ± 0.00715 µM for the second. The first binds more tightly here.

First: B21
Second: B22
The Kd of the first is 2.5-fold higher: 0.0325 ± 0.0145 µM for the first, 0.0132 ± 0.0019 µM for the second.

Going from B23 to B24, the Kd falls from 0.043 ± 0.0145 µM to 0.0184 ± 0.0047 µM (2.3-fold).

Going from B25 to B26, the Kd rises from 0.0195 ± 0.004 µM to ~0.05 µM (2.6-fold). The first binds more tightly here.

Compared with B27, B28 is 1.7-fold lower in Kd: ~0.11 µM for the first, ~0.065 µM for the second. The second binds more tightly here.

First: B29
Second: B30
The Kd of the first is 3.4-fold lower: 0.0079 ± 0.0029 µM for the first, 0.0265 ± 0.011 µM for the second. The first binds more tightly here.

B31 and B32 are within error of each other in Kd: 0.0265 ± 0.01 µM for the first, 0.0182 ± 0.0039 µM for the second.

First: B33
Second: B34
The Kd of the first is 3.1-fold lower: 0.0118 ± 0.00255 µM for the first, 0.036 ± 0.009 µM for the second.

B35 and B36 are within error of each other in Kd: 0.0479 ± 0.0033 µM for the first, ~0.05 µM for the second.

B37 and B38 are within error of each other in Kd: 0.0285 ± 0.007 µM for the first, 0.063 ± 0.0285 µM for the second.

Going from B39 to B40, the Kd rises from 0.00195 ± 0.000465 µM to 0.041 ± 0.017 µM (21-fold).

Reference: PMC10786891, “Massively parallel profiling of RNA-targeting CRISPR-Cas13d”
